The assay has as its system HA-KANK1. The experiment in a line: Streptavidin pull down of BioGFP-talin1 constructs with HA-KANK1, Western blot. In kind it is binding. Conditions: HEK293T cells. From the text:
BioGFP-tagged KANK1 mutants were constructed using PCR and pBioGFP-C1 vector as previously described ([van der Vaart et al., 2013]). Rescue constructs for BioGFP-tagged KANK1 were either based on the version previously described ([van der Vaart et al., 2013]) or a version obtained by PCR-based mutagenesis of the sequence […] to […]. mCherry-tagged paxillin construct was made by replacing GFP from pQC-GPXN ([Bouchet et al., 2011]) by mCherry (pmCherry-C1, Clontech). TagRFP-tagged paxillin construct was made by PCR-based amplification and cloning in pTagRFP-T-C1 (kind gift from Y. Mimori-Kiyosue, Riken Institute, Japan). HA-tagged KANK1 construct was generated by cloning KANK1 coding sequence into pMT2-SM-HA (gift of C. Hoogenraad, Utrecht University, The Netherlands). pLVX-IRES-Neo (pLVIN) vectors was constructed by cloning the IRES-neomycin resistance cassette from the pQCXIN plasmid (Clontech) into the pLVX-IRES-Puro plasmid (Clontech). […]
Streptavidin-based pull down assays of biotinylated proteins expressed using pBioGFP-C1 constructs transfected in HEK293T cells was performed and analyzed as previously described ([van der Vaart et al., 2013]). […] For RP-nanoLC-MS/MS, samples were resuspended in 10% formic acid (FA) / 5% DMSO and was analyzed using a Proxeon Easy-nLC100 (Thermo Scientific) connected to an Orbitrap Q-Exactive mass spectrometer. […]

B1: KANK1: full-length KANK1, BioGFP- or GFP-tagged; siRNA-resistant version for rescue (protein)
chain: MAHTTKVNGSASGKAGDILSGDQDKEQKDPYFVETPYGYQLDLDFLKYVDDIQKGNTIKRLNIQKRRKPSVPCPEPRTTSGQQGIWTSTESLSSSNSDDNKQCPNFLIARSQVTSTPISKPPPPLETSLPFLTIPENRQLPPPSPQLPKHNLHVTKTLMETRRRLEQERATMQMTPGEFRRPRLASFGGMGTTSSLPSFVGSGNHNPAKHQLQNGYQGNGDYGSYAPAAPTTSSMGSSIRHSPLSSGISTPVTNVSPMHLQHIREQMAIALKRLKELEEQVRTIPVLQVKISVLQEEKRQLVSQLKNQRAASQINVCGVRKRSYSAGNASQLEQLSRARRSGGELYIDYEEEEMETVEQSTQRIKEFRQLTADMQALEQKIQDSSCEASSELRENGECRSVAVGAEENMNDIVVYHRGSRSCKDAAVGTLVEMRNCGVSVTEAMLGVMTEADKEIELQQQTIESLKEKIYRLEVQLRETTHDREMTKLKQELQAAGSRKKVDKATMAQPLVFSKVVEAVVQTRDQMVGSHMDLVDTCVGTSVETNSVGISCQPECKNKVVGPELPMNWWIVKERVEMHDRCAGRSVEMCDKSVSVEVSVCETGSNTEESVNDLTLLKTNLNLKEVRSIGCGDCSVDVTVCSPKECASRGVNTEAVSQVEAAVMAVPRTADQDTSTDLEQVHQFTNTETATLIESCTNTCLSTLDKQTSTQTVETRTVAVGEGRVKDINSSTKTRSIGVGTLLSGHSGFDRPSAVKTKESGVGQININDNYLVGLKMRTIACGPPQLTVGLTASRRSVGVGDDPVGESLENPQPQAPLGMMTGLDHYIERIQKLLAEQQTLLAENYSELAEAFGEPHSQMGSLNSQLISTLSSINSVMKSASTEELRNPDFQKTSLGKITGNYLGYTCKCGGLQSGSPLSSQTSQPEQEVGTSEGKPISSLDAFPTQEGTLSPVNLTDDQIAAGLYACTNNESTLKSIMKKKDGNKDSNGAKKNLQFVGINGGYETTSSDDSSSDESSSSESDDECDVIEYPLEEEEEEEDEDTRGMAEGHHAVNIEGLKSARVEDEMQVQECEPEKVEIRERYELSEKMLSACNLLKNTINDPKALTSKDMRFCLNTLQHEWFRVSSQKSAIPAMVGDYIAAFEAISPDVLRYVINLADGNGNTALHYSVSHSNFEIVKLLLDADVCNVDHQNKAGYTPIMLAALAAVEAEKDMRIVEELFGCGDVNAKASQAGQTALMLAVSHGRIDMVKGLLACGADVNIQDDEGSTALMCASEHGHVEIVKLLLAQPGCNGHLEDNDGSTALSIALEAGHKDIAVLLYAHVNFAKAQSPGTPRLGRKTSPGPTHRGSFD
modifications: biotinylated on the Bio tag (by BirA); left off: biotinylation (Bio) tag, end not stated, kept | GFP, end not stated, kept
notes: full-length KANK1, BioGFP- or GFP-tagged; siRNA-resistant version for rescue
As to B1, the “interaction of talin1 constructs with KANK1 (in words)” value is “binds to the talin1 rod domain R7”.

These data come from publication PMC4995097, “Talin-KANK1 interaction controls the recruitment of cortical microtubule stabilizing complexes to focal adhesions” (eLife, 2016).
